Laboratory results: paper PMC5913336, “True equilibrium measurement of transcription factor-DNA binding affinities using automated polarization microscopy”

How the values were obtained:
Bcd homeodomain [1] = biological target: T1, Bcd homeodomain (Drosophila melanogaster, UniProt P09081-2 77-166); assay: FP; binding buffer, no gel; conditions: tags: N-GST (pGEX-6P-1, kept); label: 5' Cy5 on strand 1
T1 sequence: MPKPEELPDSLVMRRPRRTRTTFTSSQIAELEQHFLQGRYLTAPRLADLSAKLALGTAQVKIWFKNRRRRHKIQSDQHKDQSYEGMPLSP

Bicoid DBD-GST (Bcd) [2] = biological target: T2, Bicoid DBD-GST (Bcd) (UniProt P09081 83-170); assay: competitive fluorescence anisotropy (HiP-FA); mean of replicates 5.027, 4.3975; HiP-FA: 33 mM phosphate pH 7.0, 90 mM NaCl, 0.01% Tween 20, 0.1 mM DTT, 0.5% agarose; conventional titration and EMSA: 20 mM Tris-acetate pH 7.0, 50 nM (sic) NaCl, 0.01% Tween-20, 0.1 mM DTT; conditions: protein: recombinant; tags: N-terminal GST; blunt, G:G mismatch at position 6
T2 sequence: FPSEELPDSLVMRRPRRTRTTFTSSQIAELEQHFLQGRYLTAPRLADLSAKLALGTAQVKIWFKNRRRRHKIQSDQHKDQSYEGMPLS

Bicoid DBD-GST (Bcd) [3] = biological target: T2, Bicoid DBD-GST (Bcd); assay: competitive fluorescence anisotropy (HiP-FA); mean of replicates 2.816, 2.505; HiP-FA: 33 mM phosphate pH 7.0, 90 mM NaCl, 0.01% Tween 20, 0.1 mM DTT, 0.5% agarose; conventional titration and EMSA: 20 mM Tris-acetate pH 7.0, 50 nM (sic) NaCl, 0.01% Tween-20, 0.1 mM DTT; conditions: protein: recombinant; tags: N-terminal GST; blunt, G:G mismatch at position 6
Bicoid DBD-GST (Bcd) [4] = biological target: T2, Bicoid DBD-GST (Bcd); assay: competitive fluorescence anisotropy (HiP-FA); mean of replicates 5.163, 4.995; HiP-FA: 33 mM phosphate pH 7.0, 90 mM NaCl, 0.01% Tween 20, 0.1 mM DTT, 0.5% agarose; conventional titration and EMSA: 20 mM Tris-acetate pH 7.0, 50 nM (sic) NaCl, 0.01% Tween-20, 0.1 mM DTT; conditions: protein: recombinant; tags: N-terminal GST; blunt, G:G mismatch at position 6
Bicoid DBD-GST (Bcd) [5] = biological target: T2, Bicoid DBD-GST (Bcd); assay: competitive fluorescence anisotropy (HiP-FA); mean of replicates 6.544, 6.784; HiP-FA: 33 mM phosphate pH 7.0, 90 mM NaCl, 0.01% Tween 20, 0.1 mM DTT, 0.5% agarose; conventional titration and EMSA: 20 mM Tris-acetate pH 7.0, 50 nM (sic) NaCl, 0.01% Tween-20, 0.1 mM DTT; conditions: protein: recombinant; tags: N-terminal GST; blunt
Bicoid DBD-GST (Bcd) [6] = biological target: T2, Bicoid DBD-GST (Bcd); assay: competitive fluorescence anisotropy (HiP-FA); mean of replicates 6.092, 5.6175; HiP-FA: 33 mM phosphate pH 7.0, 90 mM NaCl, 0.01% Tween 20, 0.1 mM DTT, 0.5% agarose; conventional titration and EMSA: 20 mM Tris-acetate pH 7.0, 50 nM (sic) NaCl, 0.01% Tween-20, 0.1 mM DTT; conditions: protein: recombinant; tags: N-terminal GST; blunt
Bcd homeodomain [7] = biological target: T1, Bcd homeodomain; assay: EMSA; 20 mM Tris-acetate pH 7.0, 50 "nM" NaCl as printed (probably mM), 0.01% Tween 20, 0.1 mM DTT, 10% glycerol; room temperature; 4 nM probe; conditions: tags: N-GST (pGEX-6P-1, kept); label: Cy3
Bicoid DBD-GST (Bcd) [8] = biological target: T2, Bicoid DBD-GST (Bcd); assay: competitive fluorescence anisotropy (HiP-FA); mean of replicates 3.961, 3.634; HiP-FA: 33 mM phosphate pH 7.0, 90 mM NaCl, 0.01% Tween 20, 0.1 mM DTT, 0.5% agarose; conventional titration and EMSA: 20 mM Tris-acetate pH 7.0, 50 nM (sic) NaCl, 0.01% Tween-20, 0.1 mM DTT; conditions: protein: recombinant; tags: N-terminal GST; blunt, G:G mismatch at position 6
Bicoid DBD-GST (Bcd) [9] = biological target: T2, Bicoid DBD-GST (Bcd); assay: competitive fluorescence anisotropy (HiP-FA); mean of replicates 3.751, 3.7605; HiP-FA: 33 mM phosphate pH 7.0, 90 mM NaCl, 0.01% Tween 20, 0.1 mM DTT, 0.5% agarose; conventional titration and EMSA: 20 mM Tris-acetate pH 7.0, 50 nM (sic) NaCl, 0.01% Tween-20, 0.1 mM DTT; conditions: protein: recombinant; tags: N-terminal GST; blunt, G:G mismatch at position 6
Bicoid DBD-GST (Bcd) [10] = biological target: T2, Bicoid DBD-GST (Bcd); assay: competitive fluorescence anisotropy (HiP-FA); mean of replicates 2.884, 2.6855; HiP-FA: 33 mM phosphate pH 7.0, 90 mM NaCl, 0.01% Tween 20, 0.1 mM DTT, 0.5% agarose; conventional titration and EMSA: 20 mM Tris-acetate pH 7.0, 50 nM (sic) NaCl, 0.01% Tween-20, 0.1 mM DTT; conditions: protein: recombinant; tags: N-terminal GST; blunt, G:G mismatch at position 6
Bicoid DBD-GST (Bcd) [11] = biological target: T2, Bicoid DBD-GST (Bcd); assay: competitive fluorescence anisotropy (HiP-FA); mean of replicates 4.889, 5.1445; HiP-FA: 33 mM phosphate pH 7.0, 90 mM NaCl, 0.01% Tween 20, 0.1 mM DTT, 0.5% agarose; conventional titration and EMSA: 20 mM Tris-acetate pH 7.0, 50 nM (sic) NaCl, 0.01% Tween-20, 0.1 mM DTT; conditions: protein: recombinant; tags: N-terminal GST; blunt, C:C mismatch at position 6 as printed

B1: Bcd Cy5 reference (dsDNA)
DNA 1: TCGACGCTAAGCTGTA
DNA 2: TACAGCTTAGCGTCGA
- koff (Bcd homeodomain [1]): 0.41 s⁻¹

B2: Bcd competitor 33 (T11A) (dsDNA)
DNA 1: TCGACGGTAATCCCAA
DNA 2: TTGGGATTACGGTCGA
- Kd (Bicoid DBD-GST (Bcd) [2]): 4.71 nM

B3: Bcd competitor 2 (C1T) (dsDNA)
DNA 1: TCGATGGTAATCCCTA
DNA 2: TAGGGATTACGATCGA
- Kd (Bicoid DBD-GST (Bcd) [3]): 2.66 nM

B4: Bcd competitor 32 (T11G) (dsDNA)
DNA 1: TCGACGGTAATCCCGA
DNA 2: TCGGGATTACGGTCGA
- Kd (Bicoid DBD-GST (Bcd) [4]): 5.08 nM

B5: Bcd competitor 5 (G2T) (dsDNA)
DNA 1: TCGACTGTAATCCCTA
DNA 2: TAGGGATTACAGTCGA
- Kd (Bicoid DBD-GST (Bcd) [5]): 6.66 nM

B6: Bcd competitor 6 (G2A) (dsDNA)
DNA 1: TCGACAGTAATCCCTA
DNA 2: TAGGGATTACTGTCGA
- Kd (Bicoid DBD-GST (Bcd) [6]): 5.86 nM

B7: Bcd EMSA probe (dsDNA)
DNA 1: TCGACCGTAATCCCTA
DNA 2: TAGGGATTACGGTCGA
- Kd (Bcd homeodomain [7]): 1.8 ± 0.2 nM

B8: Bcd competitor 31 (T11C) (dsDNA)
DNA 1: TCGACGGTAATCCCCA
DNA 2: TGGGGATTACGGTCGA
- Kd (Bicoid DBD-GST (Bcd) [8]): 3.8 nM

B9: Bcd competitor 3 (C1A) (dsDNA)
DNA 1: TCGAAGGTAATCCCTA
DNA 2: TAGGGATTACGTTCGA
- Kd (Bicoid DBD-GST (Bcd) [9]): 3.76 nM

B10: Bcd competitor 7 (G3C) (dsDNA)
DNA 1: TCGACGCTAATCCCTA
DNA 2: TAGGGATTAGGGTCGA
- Kd (Bicoid DBD-GST (Bcd) [10]): 2.79 nM

B11: Bcd competitor 4 (G2C) (dsDNA)
DNA 1: TCGACCGTAATCCCTA
DNA 2: TAGGGATTACCGTCGA
- Kd (Bicoid DBD-GST (Bcd) [11]): 5.02 nM
